{
  "source": "patent US20020155121A1",
  "key": {"[1]": {"molecular_target": "CCR5 expressed on cells (L1.2/R5, Cf2Th-R5, U373/CD4/CCR5) (UniProt P51681)", "sequence (P51681 whole entry)": "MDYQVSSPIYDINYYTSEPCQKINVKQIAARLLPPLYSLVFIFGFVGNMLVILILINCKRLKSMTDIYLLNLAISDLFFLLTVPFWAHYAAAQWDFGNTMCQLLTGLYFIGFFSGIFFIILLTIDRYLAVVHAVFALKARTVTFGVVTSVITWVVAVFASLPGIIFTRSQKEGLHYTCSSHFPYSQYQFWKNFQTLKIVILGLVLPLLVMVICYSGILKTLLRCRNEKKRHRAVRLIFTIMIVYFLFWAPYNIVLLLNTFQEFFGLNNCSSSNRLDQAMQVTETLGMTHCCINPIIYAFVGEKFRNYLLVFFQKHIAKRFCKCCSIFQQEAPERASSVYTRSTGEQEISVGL", "assay": "cell-based or functional assay"}, "[2]": {"molecular_target": "CXCR4 expressed on cells (L1.2/X4, U373/CD4/CXCR4) (UniProt P61073)", "sequence (P61073 whole entry)": "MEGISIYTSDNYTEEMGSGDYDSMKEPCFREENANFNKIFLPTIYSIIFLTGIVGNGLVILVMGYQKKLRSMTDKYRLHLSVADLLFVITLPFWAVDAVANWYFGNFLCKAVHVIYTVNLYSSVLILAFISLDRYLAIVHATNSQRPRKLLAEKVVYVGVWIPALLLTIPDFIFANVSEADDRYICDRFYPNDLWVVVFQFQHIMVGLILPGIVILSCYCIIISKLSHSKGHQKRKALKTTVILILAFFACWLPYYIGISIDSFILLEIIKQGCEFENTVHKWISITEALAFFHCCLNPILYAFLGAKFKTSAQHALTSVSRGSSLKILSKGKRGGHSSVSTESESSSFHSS", "assay": "cell-based or functional assay"}, "[3]": {"molecular_target": "CCR5 expressed on cells (L1.2/R5, Cf2Th-R5, U373/CD4/CCR5) (UniProt P51681)", "assay": "flow cytometry on L1.2/R5 cells"}},
  "data": [
    {"substance": "gp120-CD4-IgG1 chimeric polypeptide (Fc fusion)", "values": [
      {"measurement": "ID90 (µg/mL), neutralization of 89.6 on U373/CD4/CCR5", "setting": "[1]", "result": 3.56, "unit": "µg/mL"},
      {"measurement": "ID90 (µg/mL), neutralization of ADA on U373/CD4/CCR5", "setting": "[1]", "result": 4.58, "unit": "µg/mL"},
      {"measurement": "ID90 (µg/mL), neutralization of BaL on U373/CD4/CCR5", "setting": "[1]", "result": 3.1, "unit": "µg/mL"},
      {"measurement": "ID90 (µg/mL), neutralization of 89.6 on U373/CD4/CXCR4", "setting": "[2]", "result": "> 10", "unit": "µg/mL"},
      {"measurement": "ID90 (µg/mL), neutralization of 2005 on U373/CD4/CXCR4", "setting": "[2]", "result": "> 10", "unit": "µg/mL"},
      {"measurement": "ID90 (µg/mL), neutralization of 2044 on U373/CD4/CXCR4", "setting": "[2]", "result": "> 10", "unit": "µg/mL"}
    ]},
    {"substance": "full-length single chain (FLSC) gp120-CD4 chimeric polypeptide (other; other documents disagree on this pair)", "values": [
      {"measurement": "concentration of maximal binding", "setting": "[3]", "result": 10, "unit": "µg/mL"}
    ]},
    {"substance": "truncated single chain (TcSC) gp120-CD4 chimeric polypeptide (other; other documents disagree on this pair)", "values": [
      {"measurement": "fold higher concentration than FLSC to approach saturation binding", "setting": "[3]", "result": 10, "unit": "fold"}
    ]}
  ]
}
